According to paper PMC2588538, “Structure of Reovirus σ1 in Complex with Its Receptor Junctional Adhesion Molecule-A” (PLoS Pathogens, 2008):

B1: σ1 of reovirus strain rsT3D-σ1T249I (parent), on purified virions [mammalian orthoreovirus, strain type 3 Dearing (T3D)] / GST-JAM-A ectodomain fusion protein [not stated] (parent complex)
chain 1: MDPRLREEVVRLIIALTSDNGASLSKGLESRVSALEKTSQIHSDTILRITQGLDDANKRIIALEQSRDDLVASVSDAQLAISRLESSIGALQTVVNGLDSSVTQLGARVGQLETGLAELRVDHDNLVARVDTAERNIGSLTTELSTLTLRVTSIQADFESRISTLERTAVTSAGAPLSIRNNRMTMGLNDGLTLSGNNLAIRLPGNTGLNIQNGGLQFRFNTDQFQIVNNNLTLKTTVFDSINSRIGAIEQSYVASAVTPLRLNSSTKVLDMLIDSSTLEINSSGQLTVRSTSPNLRYPIADVSGGIGMSPNYRFRQSMWIGIVSYSGSGLNWRVQVNSDIFIVDDYIHICLPAFDGFSIADGGDLSLNFVTGLLPPLLTGDTEPAFHNDVVTYGAQTVAIGLSSGGAPQYMSKNLWVEQWQDGVLRLRVEGGGSITHSNSKWPAMTVSYPRSFT
chain 2: SVTVHSSEPEVRIPENNPVKLSCAYSGFSSPRVEWKFDQGDTTRLVCYNNKITASYEDRVTFLPTGITFKSVTREDTGTYTCMVSEEGGNSYGEVKVKLIVLVPPSKPTVNIPSSATIGNRAVLTCSEQDGSPPSEYTWFKDGIVMPTNPKSTRAFSNSSYVLNPTTGELVFDPLSASDTGEYSCEARNGYGTPMTSNAVRMEAVERNVGV

Variants of: B1
Test: SPR; 8×1012 (orange) particles/ml virus; GST-JAM-A captured on biosensor surface; parent: 98; read off a plot

| Variant | response |
| --- | --- |
| chain 1 N369A | ~25 RU |
